We go through 94 variants from the supplement of paper PMC10567573.

B1: UBE2R2 (parent)
chain: DPQSGELPSERWNPTQNVRTILLS
B2: ADAMTS4 (parent)
chain: SFRKFRYGYNNVVTIPAGATHILV
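Further: lentivirally expressed fusions sorted by FACS into six bins by GFP to DsRed ratio, PSI derived from sequencing read proportions per bin multiplied by bin number.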

In the first data set the parent is B1. The experiment in a line: protein stability index of a GFP-peptide fusion (GPS, HEK-293T) (PSI 1-6); higher = more stable. To be noted: c terminus: a fixed tail appended.
As for DPQSGELVSERWNPTQNVRTILLS [P8V], the protein stability index is 3.33.
Regarding DPQSGELCSERWNPTQNVRTILLS [P8C], the protein stability index is 4.2.
As for DPQSGELASERWNPTQNVRTILLS [P8A], the protein stability index was found to be 4.13.
In the case of DPQSGELFSERWNPTQNVRTILLS [P8F], the protein stability index worked out at 3.27.
Take DPQSGELRSERWNPTQNVRTILLS [P8R]: the protein stability index was found to be 3.37.
With DPQSGELESERWNPTQNVRTILLS [P8E], the protein stability index was 3.82.
On the same count and under the same terms, to DPQSGELPSERWNPTQNVRTIALS [L22A] belongs 4.31.
The same measure, in the same setting: to DPQSGELPSERWNPTQNVRTITLS [L22T] belongs 4.1.
With DPQSGELPSERWNPTQNVRTIGLS [L22G], the protein stability index amounted to 4.5.
As to DPQSGELPSERWNPTQNVRTIDLS [L22D], the protein stability index worked out at 4.43.
On the same count and under the same terms, the result for DPQSGELPSERWNPTQNVRTICLS [L22C] reads 4.12; that for DPQSGELPSERWNPTQNVRTIRLS [L22R], 4.29; that for DPQSGELPSERWNPTQNVRTIPLS [L22P], 4.7.
Same read-out and setting: the result for DPQSGELPSERWNPTQNVRTIHLS [L22H] reads 4.2.
On to DPQSGELPSERWNPTQNVRTISLS [L22S], for which the protein stability index is 3.88.
On the same count and under the same terms, the result for DPQSGELPSERWNPTQNVRTIILS [L22I] reads 3.05.
Still for that read-out and setting: to DPQSGELPSERWNPTQWVRTILLS [N17W] belongs 2.59; to DPQSGELPSERWNPTQLVRTILLS [N17L], 2.54.
Same read-out and setting: to DPQSGELPSERWNPTQEVRTILLS [N17E] belongs 3.56; to DPQSGELPSERWNPTQIVRTILLS [N17I], 2.24; to DPQSGELPSERWNPTQPVRTILLS [N17P], 4.18.
For DPQSGELPSERWNPTQRVRTILLS [N17R], the protein stability index was determined as 3.4.
For DPQSGELPSERWNPTQTVRTILLS [N17T], the protein stability index is 3.51.
As for DPQSGELPSERWNPTQNMRTILLS [V18M], the protein stability index came to 3.3.
With DPQSGELPSERWNPTQNSRTILLS [V18S], the protein stability index is 3.92.
Consider DPQSGELPSERWNPTQNCRTILLS [V18C], for which the protein stability index stood at 3.9.
On the same count and under the same terms, the result for DPQSGELPSERWNPTQNIRTILLS [V18I] reads 3.97.
On the same count and under the same terms, to DPQSGELPSERWNPTQNPRTILLS [V18P] belongs 3.63.
On to DPQSGELPSERWNPTQNFRTILLS [V18F], for which the protein stability index was found to be 3.61.
Still for that read-out and setting: to DPQSGELPSERWNPTQNYRTILLS [V18Y] belongs 3.34.
On the same count and under the same terms, to DPQSGELPSERWNPTQNNRTILLS [V18N] belongs 4; to DPQSGELPSERWNQTQNVRTILLS [P14Q], 3.93; to DPQSGELPSERWNWTQNVRTILLS [P14W], 3.12.
The same measure, in the same setting: to DPQSGELPSERWNNTQNVRTILLS [P14N] belongs 3.17; to DPQSGELPSERWNLTQNVRTILLS [P14L], 2.79; to DPQSGELPSERWNHTQNVRTILLS [P14H], 2.98.
Take DPQSGELPSERWNVTQNVRTILLS [P14V]: the protein stability index was found to be 3.48.
On the same count and under the same terms, to DPQSGELPSERWNGTQNVRTILLS [P14G] belongs 3.71; to DPQSGELPSERWNDTQNVRTILLS [P14D], 4.12.
Consider DPQSGELPSERGNPTQNVRTILLS [W12G], for which the protein stability index came to 4.33.
Regarding DPQSGELPSERYNPTQNVRTILLS [W12Y], the protein stability index worked out at 4.07.
Consider DPQSGELPSERDNPTQNVRTILLS [W12D], for which the protein stability index is 4.81.
DPQSGELPSERHNPTQNVRTILLS [W12H]: the protein stability index worked out at 4.08.
For the variant DPQSGELPSERSNPTQNVRTILLS [W12S], the protein stability index worked out at 4.67.
The same measure, in the same setting: the result for DPQSGELPSERENPTQNVRTILLS [W12E] reads 4.71.
On to DPQSGELPSERMNPTQNVRTILLS [W12M], for which the protein stability index was found to be 4.1.
With DPQSGELPSERFNPTQNVRTILLS [W12F], the protein stability index was 3.92.
Same read-out and setting: the result for DPQSGELPSERNNPTQNVRTILLS [W12N] reads 4.48.
Same read-out and setting: the result for DPQSGELPEERWNPTQNVRTILLS [S9E] reads 3.95; that for DPQSGELPNERWNPTQNVRTILLS [S9N], 3.8.
As for DPQSGELPLERWNPTQNVRTILLS [S9L], the protein stability index was 3.76.
Still for that read-out and setting: the result for DPQSGELPGERWNPTQNVRTILLS [S9G] reads 3.27; that for DPQSGELPYERWNPTQNVRTILLS [S9Y], 2.92; that for DPQSGELPPERWNPTQNVRTILLS [S9P], 3.43.
The same measure, in the same setting: to DPQSGELPRERWNPTQNVRTILLS [S9R] belongs 3.43.
For DWQSGELPSERWNPTQNVRTILLS [P2W], the protein stability index stood at 2.34.
Same read-out and setting: to DTQSGELPSERWNPTQNVRTILLS [P2T] belongs 3.52.
Same read-out and setting: the result for DAQSGELPSERWNPTQNVRTILLS [P2A] reads 3.66; that for DFQSGELPSERWNPTQNVRTILLS [P2F], 2.81.
DIQSGELPSERWNPTQNVRTILLS [P2I]: the protein stability index stood at 2.5.
On to DEQSGELPSERWNPTQNVRTILLS [P2E], for which the protein stability index came to 3.59.
The same measure, in the same setting: the result for DRQSGELPSERWNPTQNVRTILLS [P2R] reads 3.09.
With DHQSGELPSERWNPTQNVRTILLS [P2H], the protein stability index stood at 2.88.
On to DPQSGMLPSERWNPTQNVRTILLS [E6M], for which the protein stability index stood at 2.88.
The same measure, in the same setting: to DPQSGKLPSERWNPTQNVRTILLS [E6K] belongs 2.79.
In the case of DPQSGQLPSERWNPTQNVRTILLS [E6Q], the protein stability index came out at 3.49.
DPQSGCLPSERWNPTQNVRTILLS [E6C]: the protein stability index is 3.02.
The same measure, in the same setting: to DPQSGGLPSERWNPTQNVRTILLS [E6G] belongs 3.3; to DPQSGPLPSERWNPTQNVRTILLS [E6P], 2.8.
Still for that read-out and setting: to DPQSGELPSEFWNPTQNVRTILLS [R11F] belongs 2.82; to DPQSGELPSENWNPTQNVRTILLS [R11N], 3.48; to DPQSGELPSETWNPTQNVRTILLS [R11T], 3.98.
For the variant DPQSGELPSEMWNPTQNVRTILLS [R11M], the protein stability index was 3.22.
Regarding DPQSGELPSECWNPTQNVRTILLS [R11C], the protein stability index was found to be 3.76.
With DPQSGELPSESWNPTQNVRTILLS [R11S], the protein stability index was found to be 3.56.
DPQSGELPSEPWNPTQNVRTILLS [R11P]: the protein stability index worked out at 3.71.
On to DPQSGELPSEHWNPTQNVRTILLS [R11H], for which the protein stability index turned out to be 3.3.
Turning to DPQSGELPSERWNPTINVRTILLS [Q16I], the protein stability index was found to be 2.83.
DPQSGELPSERWNPTGNVRTILLS [Q16G]: the protein stability index is 3.53.
The same measure, in the same setting: to DPQSGELPSERWNPTANVRTILLS [Q16A] belongs 3.67; to DPQSGELPSERWNPTDNVRTILLS [Q16D], 3.97; to DPQSGELPSERWNPTYNVRTILLS [Q16Y], 2.54.
In the case of DPQSGELPSERWNPTMNVRTILLS [Q16M], the protein stability index amounted to 3.46.
Same read-out and setting: the result for DPQSGELPSERWNPTENVRTILLS [Q16E] reads 2.95; that for DPQSGELPSERWNPTVNVRTILLS [Q16V], 3.11.

In the next data set the parent is B2. The description is as above. To be noted: c terminus: a fixed tail appended.
For the variant LFRKFRYGYNNVVTIPAGATHILV [S1L], the protein stability index was determined as 2.08.
On the same count and under the same terms, the result for HFRKFRYGYNNVVTIPAGATHILV [S1H] reads 1.73.
On the same count and under the same terms, the result for AFRKFRYGYNNVVTIPAGATHILV [S1A] reads 4.18; that for EFRKFRYGYNNVVTIPAGATHILV [S1E], 3.35; that for DFRKFRYGYNNVVTIPAGATHILV [S1D], 2.25.
With IFRKFRYGYNNVVTIPAGATHILV [S1I], the protein stability index was 2.62.
As for KFRKFRYGYNNVVTIPAGATHILV [S1K], the protein stability index stood at 2.07.
On to FFRKFRYGYNNVVTIPAGATHILV [S1F], for which the protein stability index turned out to be 2.34.
In the case of CFRKFRYGYNNVVTIPAGATHILV [S1C], the protein stability index was 2.8.
